# Measurements published in PMC8145141, “Characterization of a Dye-Decolorizing Peroxidase from Irpex lacteus Expressed in Escherichia coli: An Enzyme with Wide Substrate Specificity Able to Transform Lignosulfonates” (Journal of Fungi, 2021).
# B1: IrlacDyP (recombinant Irpex lacteus DyP) (Irpex lacteus) (protein)
# chain: SAGNDSLPFENIQGDILVGMKKDKEKFVFFHINNATTFKSFLKTYAPANITSVQTIIGPASGQPQAFVNLAFSHTGFGALGVADDLQDTAFTAGQFADAPSFGDDTSTWEEAFKGTNVDGVFLIGSDDVTTTNQYRDDLKAKLGDAWTVLLDLDSAARPGAEKGHEHFGYLDGISNPTIPGFGTPFPGQAVVDSGVIFAGRTNDPVTNRPSWALDGSFLVFRKLKQLVPEFHKWTLDNALQNQAGNLTVEEGALLLGSRMFGRWNSGAPIDLTPDVDDPTLGSDPQRNNDFNYIHPGEDLTTDETRCPFTAHVRKANPRDLEAQGLIPDLFHAIRAGTPYGPEVTDAESNSNTTSIDRGLAFVEYQSVISNGFRFQQLNWANNANFPFNKSEPLGLDPVIGQGTRQTFGLDPRNASDSLTIPQIIISNGGEYFFSPSITALVEHFGA
# notes: mature form, signal peptide removed, 447 residues; about 50 kDa, non-glycosylated
# What was measured:
# purified protein [1] = substrate: Nc1c(N=Nc2ccc(S(=O)(=O)CCOS(=O)(=O)O)cc2)c(S(=O)(=O)O)cc2cc(S(=O)(=O)O)c(N=Nc3ccc(S(=O)(=O)CCOS(=O)(=O)O)cc3)c(O)c12; assay: purified protein; assay type: biochemical, Irpex lacteus; settings: 0.4 mM H2O2, pH 3.0, 25 °C
# purified protein [2] = substrate: CCn1c(=NN=c2sc3cc(S(=O)(=O)O)ccc3n2CC)sc2cc(S(=O)(=O)O)ccc21; assay: purified protein; assay type: biochemical, Irpex lacteus; settings: 0.4 mM H2O2, pH 3.0, 25 °C
protein,measurement,setting,value
B1,Km,purified protein [1],11.9 ± 2.1 µM
same,kcat/Km,purified protein [1],6.5e+06 ± 1e+06 M⁻¹ s⁻¹
same,Km,purified protein [2],1.5 ± 0.2 µM
same,kcat,purified protein [2],49.8 ± 1.3 s⁻¹
same,kcat/Km,purified protein [2],3.3e+07 ± 4e+06 M⁻¹ s⁻¹
